The values below come from EP1616575B1 (ZymoGenetics, Inc., dated 2012).

For assay [1], the target named is T1, IL-20RA/IL-20RB heterodimeric receptor (human, UniProt Q9UHF4 30-553; Q6UXL0 30-311).
T1 construct: Both subunits co-expressed on cells: transfected COS, BHK and BaF3 cells, and endogenous on HaCaT keratinocytes; also called IL-20 receptor; IL-20RB-IL-20RA heterodimer
T1 sequence 1: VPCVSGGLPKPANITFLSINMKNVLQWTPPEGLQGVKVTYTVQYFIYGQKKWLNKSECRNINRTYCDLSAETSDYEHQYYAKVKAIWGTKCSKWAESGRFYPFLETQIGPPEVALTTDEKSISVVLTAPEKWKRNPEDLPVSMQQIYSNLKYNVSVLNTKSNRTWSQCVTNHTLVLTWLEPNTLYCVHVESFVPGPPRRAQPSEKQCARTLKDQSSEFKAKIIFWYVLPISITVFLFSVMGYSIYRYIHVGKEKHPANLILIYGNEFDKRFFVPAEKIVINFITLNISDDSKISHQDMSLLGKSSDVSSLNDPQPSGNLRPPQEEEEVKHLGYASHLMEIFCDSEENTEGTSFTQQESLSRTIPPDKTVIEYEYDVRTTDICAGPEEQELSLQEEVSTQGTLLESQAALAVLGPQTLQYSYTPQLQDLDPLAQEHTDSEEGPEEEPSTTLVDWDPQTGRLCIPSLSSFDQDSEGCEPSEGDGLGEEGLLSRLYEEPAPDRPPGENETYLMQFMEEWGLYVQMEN
T1 sequence 2: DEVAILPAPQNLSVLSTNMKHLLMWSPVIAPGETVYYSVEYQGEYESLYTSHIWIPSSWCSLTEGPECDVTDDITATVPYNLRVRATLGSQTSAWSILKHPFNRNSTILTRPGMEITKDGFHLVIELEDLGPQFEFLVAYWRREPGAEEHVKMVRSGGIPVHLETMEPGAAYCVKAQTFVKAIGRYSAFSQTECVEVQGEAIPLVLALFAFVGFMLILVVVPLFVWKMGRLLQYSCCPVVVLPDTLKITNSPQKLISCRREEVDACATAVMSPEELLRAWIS
Description: 125I-IL-20 binding to BHK cells stably transfected with IL-20RA and IL-20RB.

The next assay has as its target T2, IL-20RA (human, UniProt Q9UHF4 30-553).
T2 construct: Expressed alone on stably transfected BHK cells; also called Zcytor7; IL-20RA receptor subunit alone
T2 sequence: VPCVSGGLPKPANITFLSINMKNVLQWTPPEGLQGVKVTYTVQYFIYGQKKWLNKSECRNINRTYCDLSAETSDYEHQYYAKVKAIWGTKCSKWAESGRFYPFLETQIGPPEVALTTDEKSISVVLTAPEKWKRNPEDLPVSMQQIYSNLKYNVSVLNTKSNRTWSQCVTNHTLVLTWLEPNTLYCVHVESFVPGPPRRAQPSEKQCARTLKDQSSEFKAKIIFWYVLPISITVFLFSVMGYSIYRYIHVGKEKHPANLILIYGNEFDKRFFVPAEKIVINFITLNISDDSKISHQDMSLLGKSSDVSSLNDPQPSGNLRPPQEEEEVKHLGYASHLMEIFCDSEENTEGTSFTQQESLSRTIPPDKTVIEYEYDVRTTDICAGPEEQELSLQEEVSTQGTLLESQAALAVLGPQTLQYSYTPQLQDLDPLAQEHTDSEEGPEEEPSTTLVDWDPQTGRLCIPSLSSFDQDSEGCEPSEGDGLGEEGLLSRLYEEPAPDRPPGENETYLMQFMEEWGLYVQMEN
Description: radiolabeled IL-20 binding to BHK cells stably transfected with IL-20RA alone.

A further assay addresses T3, IL-20RB (human, UniProt Q6UXL0 30-311).
T3 construct: Expressed alone on stably transfected BHK cells; also called IL-20RB receptor subunit alone
T3 sequence: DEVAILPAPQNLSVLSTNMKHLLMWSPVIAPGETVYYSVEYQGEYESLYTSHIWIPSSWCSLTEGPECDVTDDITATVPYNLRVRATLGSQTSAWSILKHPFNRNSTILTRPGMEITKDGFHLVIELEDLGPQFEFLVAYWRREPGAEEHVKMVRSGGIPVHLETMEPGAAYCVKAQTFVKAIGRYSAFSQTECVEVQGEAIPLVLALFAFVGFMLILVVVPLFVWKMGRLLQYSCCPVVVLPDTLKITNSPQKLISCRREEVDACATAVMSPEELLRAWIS
Description: radiolabeled IL-20 binding to BHK cells stably transfected with IL-20RB alone.

B1: IL-20 (ligand, UniProt Q9NYY1 25-176, looked up)
chain: LKTLNLGSCVIATNLQEIRNGFSEIRGSVQAKDGNIDIRILRRTESLQDTKPANRCCLLRHLLRLYLDRVFKNYQTPDHYTLRKISSLANSFLTIKKDLRLCHAHMTCHCGEEAMKKYSQILSHFEKLEPQAAVVKALGELDILLQWMEETE
notes: also called Zcyto10; biotin-labeled IL-20 protein
The term Kd denotes a measure of binding affinity in units of concentration. Read a high Kd as weaker binding. As to B1, the Kd in assay [1] is ~1.5 nM. The binding result with IL-20RA and in the assay with IL-20RB was “no binding” each time.
